± gives the uncertainty stated by the source.
Experiment: self-splicing fitness, log relative to wild type (ln ratio); higher = more splicing; Tetrahymena group I intron in knt gene, E. coli kanamycin selection, DiMSum; sequences stand for … in CUCUCU…GGAGGGAAAAGUUAUCAGGCAUGCACCUGGUAGCUAGUCUUUAAACCAAUAGAUUGCAUCGGUUUAAAAGGCAAGACCGUCAAAUUGCGGGAAAGGGGUCAACAGCCGUUCAGUACCAAGUCUCAGGGGAAACUUUGAGAUGGCCUUGCAAAGGGUAUGGUAAUAAGCUGACGGACAUGGUCCUAACCACGCAGCCAAGUCCUAAGUCAACAGAUCUUCUGUUGAUAUGGAUGCAGUUCACAGACUAAAUGUCGGUCGGGGAAGAUGUAUUCUUCUCAUAAGAUAUAGUCGGACCUCUCCUUAAUGGGAGCUAGCGGAUGAAGUGAUGCAACACUGGAGCCGCUGGGAACUAAUUUGUAUGCGAAAGUAUAUUGAUUAGUUUUGGAGUACUCGUGGUCG
How it was run: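 Colonies from six replicate transformations of E. coli BL21(DE3) were pooled and amplicon-sequenced on an Illumina HiSeq 2500. The library placed an intron with all eight P1ex-region nucleotides randomised inside the knt kanamycin-resistance gene on pET-22b(+), and cells grew overnight at 37°C or 30°C on LB agar with or without 25 μg/mL kanamycin (plus 100 μg/mL carbenicillin, 50 μM IPTG, 0.2% rhamnose). Fitness is the DiMSum error-weighted combination of wild-type-normalised replicate fold changes, kanamycin versus none.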

Sequence | self-splicing fitness (ln) (30 °C) | self-splicing fitness (ln) (37 °C)
AGACAGCAAUAUUACGAUCU | -2.62 ± 0.12 | -0.863 ± 0.1
CGACAGCAAUAUUACGUAUG | -1.26 ± 0.076 | -1.36 ± 0.1
GCGCAGCAAUAUUACGCUAU | -0.914 ± 0.096 | -0.406 ± 0.12
UACAAGCAAUAUUACGAUUA | -0.0989 ± 0.079 | 0.278 ± 0.085
CUCUAGCAAUAUUACGUGGG | -4.79 ± 0.29 | -2.73 ± 0.18
ACCUAGCAAUAUUACGACAC | -0.951 ± 0.1 | -0.536 ± 0.17
CGCAAGCAAUAUUACGGAAG | -1.03 ± 0.097 | -1.44 ± 0.1
GCCAAGCAAUAUUACGCGAG | -2.43 ± 0.11 | -2 ± 0.17
AAGAAGCAAUAUUACGGUGG | -2.93 ± 0.13 | -1.98 ± 0.13
CACGAGCAAUAUUACGCCUA |  | -2.24 ± 0.45
GUAGAGCAAUAUUACGGUAA | -1.74 ± 0.15 | -1.3 ± 0.19
GUCCAGCAAUAUUACGAUGU | -0.9 ± 0.07 | -0.235 ± 0.083
AUGUAGCAAUAUUACGAUUG | -1.21 ± 0.15 | -3.05 ± 0.38
UCCAAGCAAUAUUACGACCC | -3.47 ± 0.22 | -1.98 ± 0.17
GGCGAGCAAUAUUACGAAAA |  | -2.97 ± 0.47
AUGCAGCAAUAUUACGAGCC | -2.69 ± 0.2 | -0.935 ± 0.18
CAGCAGCAAUAUUACGCGUG | -3.2 ± 0.18 | -1.92 ± 0.15
UACUAGCAAUAUUACGCACC | -1.86 ± 0.2 | -1.22 ± 0.26
GCGCAGCAAUAUUACGCUGA | -1.16 ± 0.12 | -0.667 ± 0.1
UGAAAGCAAUAUUACGCCUU | -0.914 ± 0.2 | -2.01 ± 0.34
CUUAAGCAAUAUUACGCACA | -2.43 ± 0.35 | -1.87 ± 0.4
UGAGAGCAAUAUUACGCAUG | -1.65 ± 0.13 | -2.09 ± 0.18
UAUUAGCAAUAUUACGUAAA | -2.63 ± 0.25 | -1.09 ± 0.38
GUACAGCAAUAUUACGUUUU | -3.88 ± 0.17 | -2.72 ± 0.14
CCCUAGCAAUAUUACGAUUC | -1.79 ± 0.35 | 

Sequence | self-splicing fitness (ln) (30 °C) | self-splicing fitness (ln) (37 °C)
AUCAAGCAAUAUUACGCACA | -0.256 ± 0.066 | -0.0877 ± 0.076
ACCCAGCAAUAUUACGAGUA | -2.39 ± 0.12 | -1.02 ± 0.079
GUCGAGCAAUAUUACGGCAC | -1.29 ± 0.18 | -0.213 ± 0.2
CCUUAGCAAUAUUACGGCGG | -2.92 ± 0.17 | -2.05 ± 0.21
CCGGAGCAAUAUUACGAAAG | -2.31 ± 0.11 | -1.05 ± 0.12
GGGGAGCAAUAUUACGAGUA | -2.89 ± 0.3 | -2.98 ± 0.43
AAAGAGCAAUAUUACGAUUA | -2.18 ± 0.22 | -0.939 ± 0.17
GCACAGCAAUAUUACGAGCA | -1.55 ± 0.11 | -0.832 ± 0.12
GACUAGCAAUAUUACGGCUU | -0.318 ± 0.099 | 0.0615 ± 0.14
GGCUAGCAAUAUUACGGAGU | -2.86 ± 0.1 | -2.02 ± 0.13
CUUAAGCAAUAUUACGAAGU | -2.9 ± 0.13 | -2.19 ± 0.18
UGUAAGCAAUAUUACGUGUU | -3.3 ± 0.15 | -0.96 ± 0.12
CGCGAGCAAUAUUACGGUAG | -1.19 ± 0.12 | -0.901 ± 0.13
UGAAAGCAAUAUUACGGGGG | -2.07 ± 0.17 | -2.89 ± 0.26
UCCUAGCAAUAUUACGAGGC | -2.31 ± 0.13 | -3.06 ± 0.26
CUUCAGCAAUAUUACGUCUA |  | -2.38 ± 0.32
AGCCAGCAAUAUUACGGGCC | -2.77 ± 0.2 | -3.49 ± 0.46
CCCUAGCAAUAUUACGAACU | -2.89 ± 0.18 | -3.56 ± 0.39
GUCAAGCAAUAUUACGAGAG | -2.41 ± 0.18 | -2.31 ± 0.27
UGGCAGCAAUAUUACGAUAU | -2.5 ± 0.16 | -1.37 ± 0.21
UCGUAGCAAUAUUACGCCGA | -0.812 ± 0.31 | -2.03 ± 0.27
CCCAAGCAAUAUUACGAAGA | -3.32 ± 0.2 | -2.59 ± 0.2
GCCGAGCAAUAUUACGAUAG | -2.94 ± 0.21 | -2.13 ± 0.21
UACGAGCAAUAUUACGGACA | -3.34 ± 0.26 | -1.72 ± 0.17
AGUUAGCAAUAUUACGAUGA | -1.32 ± 0.18 | -0.239 ± 0.16

Sequence | self-splicing fitness (ln) (30 °C) | self-splicing fitness (ln) (37 °C)
ACACAGCAAUAUUACGGGAU | -1.91 ± 0.053 | -0.774 ± 0.06
AUCAAGCAAUAUUACGCUAA | -2.95 ± 0.17 | -1.1 ± 0.14
UGAAAGCAAUAUUACGCAAC | -3.98 ± 0.29 | -1.69 ± 0.19
UCAUAGCAAUAUUACGAGUG | -1.8 ± 0.11 | -0.999 ± 0.11
AGUUAGCAAUAUUACGUUGC | -4.72 ± 0.41 | -2.21 ± 0.21
GAAUAGCAAUAUUACGGUUC | -3.69 ± 0.17 | -3.25 ± 0.33
AUUUAGCAAUAUUACGAACC | -2.12 ± 0.19 | -0.169 ± 0.21
CCUCAGCAAUAUUACGACCG | -0.986 ± 0.093 | -0.493 ± 0.095
GAACAGCAAUAUUACGUCAC | -3.44 ± 0.23 | -0.689 ± 0.17
AUGAAGCAAUAUUACGGGAG | -1.71 ± 0.098 | -1.16 ± 0.11
AAACAGCAAUAUUACGACUU | 0.0535 ± 0.066 | 0.468 ± 0.086
CUAAAGCAAUAUUACGAAGC |  | -2.06 ± 0.42
GACCAGCAAUAUUACGCACU | -0.104 ± 0.06 | 0.195 ± 0.079
UGCCAGCAAUAUUACGACGC | -3.03 ± 0.22 | -1.68 ± 0.25
GCUAAGCAAUAUUACGCCCU | -0.606 ± 0.19 | -0.768 ± 0.15
CAGGAGCAAUAUUACGACGU | -3.17 ± 0.16 | -2.13 ± 0.2
GUGAAGCAAUAUUACGCGGA | -1.24 ± 0.09 | -1.13 ± 0.14
CAGUAGCAAUAUUACGGAGG | -1.61 ± 0.094 | -0.514 ± 0.12
AGACAGCAAUAUUACGGAUU | -2.55 ± 0.088 | -1.45 ± 0.089
GUUCAGCAAUAUUACGAACA | -2.43 ± 0.26 | -1.45 ± 0.22
CAUGAGCAAUAUUACGCGAU | -1.87 ± 0.18 | -1.61 ± 0.32
AGGUAGCAAUAUUACGCGAA | -1.61 ± 0.017 | -0.832 ± 0.035
AAGAAGCAAUAUUACGCCUC | -1.82 ± 0.26 | -1.85 ± 0.27
UGCAAGCAAUAUUACGGUUU | -2.53 ± 0.071 | -1.28 ± 0.071
CCGGAGCAAUAUUACGGCUU | -0.296 ± 0.29 | -1.49 ± 0.33

Sequence | self-splicing fitness (ln) (30 °C) | self-splicing fitness (ln) (37 °C)
CACCAGCAAUAUUACGGUAA | -1.18 ± 0.056 | -0.566 ± 0.061
GCAGAGCAAUAUUACGUGAC | -2.91 ± 0.12 | -1.54 ± 0.11
UCUCAGCAAUAUUACGUGGA | -3.7 ± 0.29 | -1.05 ± 0.12
AAAGAGCAAUAUUACGCCUC | -0.411 ± 0.27 | 
UCCAAGCAAUAUUACGACGU | -0.266 ± 0.068 | 0.0245 ± 0.073
UCAGAGCAAUAUUACGUCGC | -3.79 ± 0.37 | -2.41 ± 0.35
GAACAGCAAUAUUACGCUGU | -3.8 ± 0.14 | -2.99 ± 0.19
UUUUAGCAAUAUUACGAGAA | -0.897 ± 0.48 | -0.946 ± 0.19
CCAGAGCAAUAUUACGAGGC | -2.82 ± 0.38 | -1.34 ± 0.41
UAACAGCAAUAUUACGUAUU | -3.38 ± 0.14 | -1.94 ± 0.18
CGAGAGCAAUAUUACGUAUC | -3.63 ± 0.25 | -1.87 ± 0.38
UAGAAGCAAUAUUACGUUGU | -4.33 ± 0.18 | -2.47 ± 0.14
GAGAAGCAAUAUUACGUAAU | -1.88 ± 0.1 | -0.98 ± 0.11
UCAUAGCAAUAUUACGCCUG | -0.427 ± 0.085 | -0.133 ± 0.11
UAACAGCAAUAUUACGGUCA | -0.282 ± 0.073 | 0.714 ± 0.085
GUCGAGCAAUAUUACGAUGC | -1.17 ± 0.18 | -1.09 ± 0.18
UGGUAGCAAUAUUACGUCAG | -2.07 ± 0.19 | -0.266 ± 0.15
GCAGAGCAAUAUUACGCAAA | -3.37 ± 0.38 | 
CCUGAGCAAUAUUACGAUUU | -3.27 ± 0.19 | -2.3 ± 0.16
UCCAAGCAAUAUUACGUCCA | -1.56 ± 0.11 | -0.691 ± 0.11
UAGUAGCAAUAUUACGUCAA | -2.07 ± 0.23 | -2.44 ± 0.18
GCGUAGCAAUAUUACGUGGA | -3.68 ± 0.48 | -2.23 ± 0.38
